Laboratory results reported in the nanobody polyreactivity screen of Harvey et al. (2022).

Assay: yeast display, Sf9 membrane polyspecificity reagent, FACS + sequencing; frameworks hold sequencing errors
Method in brief: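 Nanobodies came from a synthetic yeast display library in Saccharomyces cerevisiae BJ5465, induced with galactose for 36–48 hours and stained for 1 hour at 4 °C with 10% biotinylated, detergent-solubilized Sf9 membrane reagent. Cells were enriched on streptavidin microbeads and then FACS-sorted, with low and high (top ~1%) gates set on anti-HA fluorescence for expression and streptavidin fluorescence for reagent binding. Each polyreactivity label reflects the gate a clone came from. Genes were amplified by colony PCR, sequenced by MiSeq 2 × 250 and filtered by CDR length.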

In the case of “QVQLVESGGGLVQAGGSLRLSCAASGRTLRYNVMGLYRQAPGKERELVAVIDRSGVSTYYADSVKGRFTISRDNAKNTVYLQMNSLKPEDTAVYYCAAPRVVYRGDYWGQGTQVTVSW”, the “polyreactivity (PSR sort gate)” value is reported as “high polyreactivity”.
For “QVQLVESGGGLVQAGGSLRLSCAASGRTLRYNVMGWYRHAPGKERELVAAISSGGSTYYADSVKGRFTISRDNAKNTVYLQMNSLKPEDTAVYYCAKRVSNWVTGGGYYYWGQGTQVTVSS”, the “polyreactivity (PSR sort gate)” value was “high polyreactivity”.
With “QVQLVESGGGLVQAGGSLRLSCAASGRTLRYYAMGWYRQAPGKERELVAAITKSGGSTYYADSVKGRFTISRDNAKNTVYLQMTSLKPEDTAVYYCNKVTYSRAQYIGGDGYYWGQGTQVTVSS” the “polyreactivity (PSR sort gate)” value was “high polyreactivity”.
With “QVQLVESGGGLVQAGGSLRLSCAASGRTLSFYAMGWYRQAPGKERELVASISSGGRTYYADSVKGRFTISRDNAKNTVYLQMNSLKPEDTAVYYCAVGYRSRYRSRDDYWGQGTQVTVSS” the “polyreactivity (PSR sort gate)” value was “high polyreactivity”.
For “QVQLVESGGGLVQAGGSLRLSCAASGRTLSIYAMGMYRQAPGKEMELVASISSSGGRTDYADSVKGRFTISRDNAKYTVYLQMNSLKPEDTAVYYCAADGGYYYPYRGYHKYYYWGQGTLVTVSS”, the “polyreactivity (PSR sort gate)” value was “low polyreactivity”.
With “QVQLVESGGGLVQAGGSLRLSCAASGRTLSRYAMGWYRQAPGKEREFVAGISASGGRTYYADSVKGRFTISRDNAKNTVYLQMNSLKPEDTAVYYCAAQLPWAGGKYDYWGQGTQVTVSS” the “polyreactivity (PSR sort gate)” value was “high polyreactivity”.
For “QVQLVESGGGLVQAGGSLRLSCAASGRTLSTNGMGWYRQAPGKERELVATITRRGGRTYYADSVKGRFTISRDNAKNTVYLQMNSLKPEDTAVYYCATEQADRRVTYKYWGQGTQVTVSS”, the “polyreactivity (PSR sort gate)” value was “high polyreactivity”.
In the case of “QVQLVESGGGLVQAGGSLRLSCAASGRTLSYYARGWYRQAPGKERELVASIRRRTGSTYYAESVKGRFTISRDNAKNSVYLQMNSLTPEDTAVYYCAADLIYYGEYDYWGQGTQVTVSS”, the “polyreactivity (PSR sort gate)” value is reported as “high polyreactivity”.
With “QVQLVESGGGLVQAGGSLRLSCAASGRTLTKYVMGWYRQAPGKEREFVAAISSSGDSTYYADSVKGRFTISRDNAKNPVYLQMNSLKQEDTAVYYCAKYDRNTYCYWGQCTQVTVSS” the “polyreactivity (PSR sort gate)” value was “low polyreactivity”.
With “QVQLVESGGGLVQAGGSLRLSCAASGRTLTSNAMGWYRQAPGKERELVASITGSSSNTYYADSVKGRFTISRDNAKNTVYLQMNSLKPEDTAVYYCAAEVGFPWWRLDEYWGQGTQVTVSS” the “polyreactivity (PSR sort gate)” value was “low polyreactivity”.
For “QVQLVESGGGLVQAGGSLRLSCAASGRTLVKYAMGRYRPAPGKERELVAALTQRGGITYYADSVKGRFTISRDNAKNTVYLQMNSLKPEDTAVYYCAASLYSYRSPYTFYYWGQGTQVTVSS”, the “polyreactivity (PSR sort gate)” value was “high polyreactivity”.
With “QVQLVESGGGLVQAGGSLRLSCAASGRTLVRNVMGWYRQAPGKERELVAAISRSGGSTYYADSVKGRFTISRDNAKNTVYLQMNSLKPEDTAVYYCAAATKSNGAPIFDSWGQGTQVTVSS” the “polyreactivity (PSR sort gate)” value was “high polyreactivity”.
For “QVQLVESGGGLVQAGGSLRLSCAASGRTLVVNDMGWYRQAPGKERELVADINWSGGRTYYADSVKGRFTISRDNAKNTVYLQMNSLKPEDTAVYYCAADLSWRQYYREYDYWGQGTEVTVSS”, the “polyreactivity (PSR sort gate)” value was “high polyreactivity”.
With “QVQLVESGGGLVQAGGSLRLSCAASGRTLVYYAMGWYRQAPGKERELVAAITSVGSTNYADSVKGRFTISRDNAKNTVYLQMNSLKPEDTAVYYCAADRTYRFYYTQGYEYWGQGTQVTVSS” the “polyreactivity (PSR sort gate)” value was “low polyreactivity”.
In the case of “QVQLVESGGGLVQAGGSLRLSCAASGRTLWWYAMAWYRQAPGKERELVAAIDYSDGNTYYADSVKGRFTISRDNAKNTVYLQMNSLKPEDTAVYYCAAEGYYNYGSYYWGQGTQVTVSS”, the “polyreactivity (PSR sort gate)” value is reported as “high polyreactivity”.
For “QVQLVESGGGLVQAGGSLRLSCAASGRTLWYYTMGWYRQAPGKERELVADITRGTSTNYADSVKGRFTISRDNAKNTVYLQMNSLKPEDTAVYYCNRAHGRSRYSRDYDSWGQGTQVTVSS”, the “polyreactivity (PSR sort gate)” value was “low polyreactivity”.
In the case of “QVQLVESGGGLVQAGGSLRLSCAASGRTLYFNAMAWYRQEPGKERELVADISIGGSTYYADSVKGRFTISRDNAKNTVYLQMNSLKPEDTAVYYLATDYLGGGKRYYYWGQGTQVTVSS”, the “polyreactivity (PSR sort gate)” value is reported as “high polyreactivity”.
In the case of “QVQLVESGGGLVQAGGSLRLSCAASGRTLYFNAMGWYRQAPGKERELVADISIGGSTYYADSVKGRFTISRDNAKNTVYLQMNSLKPEDTAVYYCAANAHYYVSYAWYVDVDYWGQGTQVTVSS”, the “polyreactivity (PSR sort gate)” value is reported as “high polyreactivity”.
With “QVQLVESGGGLVQAGGSLRLSCAASGRTLYGYAMGWYRQAPGKERELVASIRSGGSTNYADSVKGSFTISRDNAKNTVYFQMNSLKQEYTAVYYCAAEPYYSYGYYHAHGRDVGYWGQGTQVTVSS” the “polyreactivity (PSR sort gate)” value was “low polyreactivity”.
With “QVQLVESGGGLVQAGGSLRLSCAASGRTLYKYAMGWYRQAPGKERELVATISSGGRTNYADSVKGRFTISRDNAKNPVYLQMNSLKPEDTAVYYCAADVVRYYYTYDYWGQGTQVTVSS” the “polyreactivity (PSR sort gate)” value was “low polyreactivity”.
With “QVQLVESGGGLVQAGGSLRLSCAASGRTLYRNAMGWDRQAPGKERELVATITSGGSTYYADSVKGRFTISRDTAKNTVYLLMNSLKPEDTAVYYCNADWYWRVYWGQGTQVTVSS” the “polyreactivity (PSR sort gate)” value was “high polyreactivity”.
In the case of “QVQLVESGGGLVQAGGSLRLSCAASGRTMDFNVMGWYRQAPGKERELVAAITWSGGSTYYSDSVKGRFTISRDNAKNTVYLQMNSLKPVDTAVYYCAKDLWYWARRYDYWGQGTQVTVSS”, the “polyreactivity (PSR sort gate)” value is reported as “high polyreactivity”.
With “QVQLVESGGGLVQAGGSLRLSCAASGRTNCEYTMGWYRKAPGKERELVAVITKSGGSTYYADSVKGRFTISRDNAKNTVYLQMNSLKPEDTAVYDCAARRYYYLNSRYGYWGQGTQVTVSS” the “polyreactivity (PSR sort gate)” value was “high polyreactivity”.
With “QVQLVESGGGLVQAGGSLRLSCAASGRTRFYAMGWYRQPPGKEREMVAAISGSSGSTYYADSVKGRFTISRDNAKNTVYLQMNSLKPEDTAVYYCAADFWRFYYEYDYWGQGTQVTVSS” the “polyreactivity (PSR sort gate)” value was “low polyreactivity”.
With “QVQLVESGGGLVQAGGSLRLSCAASGRTRHGYTMGWYRQAPGKERELVATISSIGGSTYYADSLKGRFTISRDNAKNTVYLQMNSLKPEDTAVYYSNRGRARVIFSGMDYWGQGTQVTVSS” the “polyreactivity (PSR sort gate)” value was “low polyreactivity”.
For “QVQLVESGGGLVQAGGSLRLSCAASGRTSFHYAMGWYRQAPGKERELVAAINWNGGRTYYADSVKGRFTISRDNAKNTVYLQMNSLKPEDTAVYYCAARLSYLGGYDYWGQGTQVTVSS”, the “polyreactivity (PSR sort gate)” value was “high polyreactivity”.
For “QVQLVESGGGLVQAGGSLRLSCAASGRTSFYYGMGWYRQAPGKERELVAGINYGGGSTYYADSVKGRFTISRDNAKNTVYLQMNSLKPEDTAVYYCNAGDGPDEEYDYWGQGTQVTVSS”, the “polyreactivity (PSR sort gate)” value was “low polyreactivity”.
With “QVQLVESGGGLVQAGGSLRLSCAASGRTSGAYAMGWYRQAPGKERELVAAISIAGITYADSVKGRFTISRDNAKNTVYLQMNSLKPEDTAVYYCAAYYLFRPYAQYDYWGQGTQVTVSS” the “polyreactivity (PSR sort gate)” value was “low polyreactivity”.
With “QVQLVESGGGLVQAGGSLRLSCAASGRTSGGYAMGWYRQAPGNERELVASITWSGDTTYYADSVTGRFTISRDNAKNTVYLQMNSLKPEDTAVYYCATIPGYVYYWQYKYDYWGQGTQVTVSS” the “polyreactivity (PSR sort gate)” value was “low polyreactivity”.
In the case of “QVQLVESGGGLVQAGGSLRLSCAASGRTSGINAMGWYRQAPGKERELVAAISSGGRTYYADSVKGRFTISRDNAKNTVYLQMNSLKPEDTAVYYCAAVIHWSLYRRMEYWGQGTQVTVSS”, the “polyreactivity (PSR sort gate)” value is reported as “high polyreactivity”.
For “QVQLVESGGGLVQAGGSLRLSCAASGRTSGKNAMGSYRQATRKEREMVAAISSSGGSTYYADSVKGRFTISRDNAKNTVYLQMNSLKPEDTAVYYCAAKYFRKYSQIGPDMYYWGQGTQVTVSS”, the “polyreactivity (PSR sort gate)” value was “high polyreactivity”.
In the case of “QVQLVESGGGLVQAGGSLRLSCAASGRTSIPYARGWYRQAPGKERELVAAISYSVGRTYYADSVKGRFTISRDNAKNTVYLQMNSLKPEDTAVYYCAAEYNGVVRDYDYWGQGTQVTVSS”, the “polyreactivity (PSR sort gate)” value is reported as “low polyreactivity”.
With “QVQLVESGGGLVQAGGSLRLSCAASGRTSIYNTMGWYRQAPGKERELVAAINPSGSTNYADSVKGRFTISRDNAKNTVYLQMNSLKPEDTAVYYCAAVVKWWGQSRYDYWGQGTQVTVSS” the “polyreactivity (PSR sort gate)” value was “high polyreactivity”.
For “QVQLVESGGGLVQAGGSLRLSCAASGRTSKYYAMGWYRQAPGKERELVAAITGTGGSTYYADSVKGRFTISRDNAKNTVYLQMNSLKPEDTAVYYCAALRKSYTYDSWGQGTQVTVSS”, the “polyreactivity (PSR sort gate)” value was “high polyreactivity”.
In the case of “QVQLVESGGGLVQAGGSLRLSCAASGRTSLRYAMGWYRQAPGKERELVAAITSSGATTYYADSVKGRFTISRDNAKNTVYLQMNSLKPEDTAVYYCAAVYSAKRGSGGFGYWGQGTQVTVSS”, the “polyreactivity (PSR sort gate)” value is reported as “high polyreactivity”.
In the case of “QVQLVESGGGLVQAGGSLRLSCAASGRTSPAYAMGWYRQAPGKERELVAAISRSGGRTNYADSVKGRFTISRDNAKNTVYLQMNSLKPEDTAVYYCAVPYWYLGDNSGHDPYYYWGQGTQVTVSS”, the “polyreactivity (PSR sort gate)” value is reported as “high polyreactivity”.
With “QVQLVESGGGLVQAGGSLRLSCAASGRTSRSNAMGWYRQAPGKERELVAAISSGGSTYADSVKGRFTISRDNAKNTVYLQMNSLKPEDTAVYYCAARYRTRYAGYNYWGQGTQVTVSS” the “polyreactivity (PSR sort gate)” value was “high polyreactivity”.
In the case of “QVQLVESGGGLVQAGGSLRLSCAASGRTSRSYTMGWYRQSPGKERELVAAITRGGRTYYADSVKGRFTISRDNAKNTVYLQMNSLKPEDTAVYYCATDRVQSYGYWGQGTQVTVSS”, the “polyreactivity (PSR sort gate)” value is reported as “low polyreactivity”.
With “QVQLVESGGGLVQAGGSLRLSCAASGRTSSANVMGGYRQAPGKDRELVAAISWSGGSTYYADSVKGRFTISRDNAKNTVYLQMNSRKPEDTAVYYCAADYYKYYYGGDQLSITRYDYWGQGTQVTVSS” the “polyreactivity (PSR sort gate)” value was “low polyreactivity”.
In the case of “QVQLVESGGGLVQAGGSLRLSCAASGRTSSSNAMGWYRQAPGKERELVATISRTGSTYYADSVKGRFTISRDNAKNTVYLQMNSLKPEDTSVYYCNRYFSEALLHGSCYNRYYYWGQGTQVTVSS”, the “polyreactivity (PSR sort gate)” value is reported as “low polyreactivity”.
In the case of “QVQLVESGGGLVQAGGSLRLSCAASGRTSVINAMGWYRQAPGKERELVATITWSGASTYYADSVKGRFTISRDNAKNTLYLQMNSLKPEVTAVYYCATDSAQYGYDYWGQGTQVTVSS”, the “polyreactivity (PSR sort gate)” value is reported as “low polyreactivity”.
With “QVQLVESGGGLVQAGGSLRLSCAASGRTSVKYAMGWYRQAPGKERELVAAITYRGSSTYYADSVKGRFTISRDNAKNTVYLQMNSLKPEDTAVYYCAARPPLSGRYGYYYWGQGTQVTVSS” the “polyreactivity (PSR sort gate)” value was “high polyreactivity”.
With “QVQLVESGGGLVQAGGSLRLSCAASGRTSVLYAMGWYRQAPGKERELVAAISRDGSTNYADSVKGRFTISRDNAKNTVYLQMNSLKPEDTAVYYCAAEVRGSYYLTGYDYWGQGTQVTVSS” the “polyreactivity (PSR sort gate)” value was “high polyreactivity”.
